Test results published in patent US20150023989A1, “NEW ANTIBODY DRUG CONJUGATES (ADCS) AND THE USE THEREOF” (SEATTLE GENETICS, INC., priority 2011, published 2015).

Tests used:
Assay in all cases: ELISA cross-reactivity of M048-D01 Fab
Settings in all cases: Fab 1 μg/ml, TRAIL-Fc wells as background
[1] = tested on: hFGFR2β-Fc (IIIc); assay type: binding, Human
Method: (§1) The cross-reactivity of the human antibodies M048-D01-hIgG1 and M048-D01-hIgG1-b of the present application was determined using the parental Fab fragment M048-D01 (comprising Vh: SEQ ID NO: 21 and Vl: SEQ ID NO: 22).
(§2) All of the variants took the form of Fc fusion proteins in carrier-free preparations. The proteins were biotinylated according to manufacturer instructions, using a 2-fold molar excess of biotin-LC-NHS (Pierce; Cat. No. 21347) and desalted using Zeba desalting columns (Pierce; Cat. No. 89889). For the ELISA, 96-well plates pretreated with streptavidin (Pierce, 15500) were loaded overnight at 4° C. with 1 μg/ml biotinylated protein. Wells which had been loaded with biotinylated TRAIL-Fc served as a reference. The next day the plates were washed 3× with PBST (1×PBS admixed with 0.05% Tween 20 (Sigma, P7949)), treated with blocking buffer (PBST admixed with 3% BSA (Sigma A4503)), and again washed three times with PBST. 100 μl of the purified Fab (1 μg/ml) were added, and incubation was carried out at room temperature for 1 hour. […] The colour reaction was monitored at 450 nm in a plate reader (Tecan). The signal strengths of the wells containing TRAIL-Fc were used as background values, and the signal-to-background ratios were calculated as summarized in Table 3.

[2] = tested on: hFGFR1β-Fc (IIIb); assay type: binding, Human
Method: as §1, §2

[3] = tested on: mFGFR2β-Fc (IIIc); assay type: binding, Mouse
Method: as §1, §2

[4] = target: T1, mFGFR3-Fc (IIIc) (Mus musculus, UniProt Q61851); assay type: binding
T1 construct: purchased RnD Systems 710-MF
T1 sequence (Q61851 21-369 limits assumed): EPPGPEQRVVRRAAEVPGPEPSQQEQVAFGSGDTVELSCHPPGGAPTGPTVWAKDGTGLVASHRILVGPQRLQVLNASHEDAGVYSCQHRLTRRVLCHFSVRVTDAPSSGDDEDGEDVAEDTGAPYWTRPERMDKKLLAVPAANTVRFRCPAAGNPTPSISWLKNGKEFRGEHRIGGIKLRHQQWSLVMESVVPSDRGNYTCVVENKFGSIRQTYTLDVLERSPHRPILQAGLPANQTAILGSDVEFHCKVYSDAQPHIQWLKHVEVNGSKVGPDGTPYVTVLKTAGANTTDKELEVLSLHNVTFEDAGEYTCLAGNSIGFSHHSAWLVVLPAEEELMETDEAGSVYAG
Method: as §1
(§3) All of the variants took the form of Fc fusion proteins in carrier-free preparations. The proteins were biotinylated according to manufacturer instructions, using a 2-fold molar excess of biotin-LC-NHS (Pierce; Cat. No. 21347) and desalted using Zeba desalting columns (Pierce; Cat. No. 89889). For the ELISA, 96-well plates pretreated with streptavidin (Pierce, 15500) were loaded overnight at 4° C. with 1 μg/ml biotinylated protein. Wells which had been loaded with biotinylated TRAIL-Fc served as a reference. The next day the plates were washed 3× with PBST (1×PBS admixed with 0.05% Tween 20 (Sigma, P7949)), treated with blocking buffer (PBST admixed with 3% BSA (Sigma A4503)), and again washed three times with PBST. 100 μl of the purified Fab (1 μg/ml) were added, and incubation was carried out at room temperature for 1 hour. After threefold washing with PBST, an HRP-coupled anti-hIgG (Fab-specific) (diluted 1:2500, Sigma, A0293) was added, and incubation took place at room temperature for 1 hour. The colour reaction was activated by addition of 50 μl of TMB (Invitrogen, 2023) and halted after 5-15 minutes by addition of 50 μl of H2SO4 (Merck, 1120801000). The colour reaction was monitored at 450 nm in a plate reader (Tecan). The signal strengths of the wells containing TRAIL-Fc were used as background values, and the signal-to-background ratios were calculated as summarized in Table 3.

[5] = target: T2, hFGFR2β-Fc (IIIb) (Homo sapiens, UniProt P21802); assay type: binding
T2 construct: purchased RnD Systems 665-FR
Method: as §1, §3

[6] = target: T3, hFGFR1β-Fc (IIIc) (Homo sapiens, UniProt P11362); assay type: binding
T3 construct: purchased RnD Systems 661-FR
Method: as §1, §3

[7] = target: T4, hFGFR2α-Fc (IIIb) (Homo sapiens, UniProt P21802); assay type: binding
T4 construct: purchased RnD Systems 663-FR
Method: as §1, §3

[8] = target: T5, hFGFR3-Fc (IIIb) (Homo sapiens, UniProt P22607); assay type: binding
T5 construct: purchased RnD Systems 1264-FR
Method: as §1, §3

[9] = target: T6, mFGFR2β-Fc (IIIb) (Mus musculus, UniProt P21803); assay type: binding
T6 construct: purchased RnD Systems 708-MF
Method: as §1, §3

[10] = target: T7, hFGFR3-Fc (IIIc) (Homo sapiens, UniProt P22607); assay type: binding
T7 construct: purchased RnD Systems 766-FR
T7 sequence (P22607 23-375 limits assumed): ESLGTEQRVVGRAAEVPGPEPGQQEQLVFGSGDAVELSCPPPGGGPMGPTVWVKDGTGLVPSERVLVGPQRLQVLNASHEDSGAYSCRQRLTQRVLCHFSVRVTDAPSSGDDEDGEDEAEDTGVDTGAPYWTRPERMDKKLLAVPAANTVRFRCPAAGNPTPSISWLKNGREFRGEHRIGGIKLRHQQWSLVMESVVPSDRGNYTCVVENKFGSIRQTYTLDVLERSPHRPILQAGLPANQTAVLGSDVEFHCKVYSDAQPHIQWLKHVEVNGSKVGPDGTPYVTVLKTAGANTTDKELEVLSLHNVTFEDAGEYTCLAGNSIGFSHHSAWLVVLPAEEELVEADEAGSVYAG
Method: as §1, §3

[11] = target: T8, hFGFR4-Fc (Homo sapiens, UniProt P22455); assay type: binding
T8 construct: purchased RnD Systems 685-MF
Method: as §1, §3

T4 sequence (P21802 22-822 isoform P21802-3 limits assumed): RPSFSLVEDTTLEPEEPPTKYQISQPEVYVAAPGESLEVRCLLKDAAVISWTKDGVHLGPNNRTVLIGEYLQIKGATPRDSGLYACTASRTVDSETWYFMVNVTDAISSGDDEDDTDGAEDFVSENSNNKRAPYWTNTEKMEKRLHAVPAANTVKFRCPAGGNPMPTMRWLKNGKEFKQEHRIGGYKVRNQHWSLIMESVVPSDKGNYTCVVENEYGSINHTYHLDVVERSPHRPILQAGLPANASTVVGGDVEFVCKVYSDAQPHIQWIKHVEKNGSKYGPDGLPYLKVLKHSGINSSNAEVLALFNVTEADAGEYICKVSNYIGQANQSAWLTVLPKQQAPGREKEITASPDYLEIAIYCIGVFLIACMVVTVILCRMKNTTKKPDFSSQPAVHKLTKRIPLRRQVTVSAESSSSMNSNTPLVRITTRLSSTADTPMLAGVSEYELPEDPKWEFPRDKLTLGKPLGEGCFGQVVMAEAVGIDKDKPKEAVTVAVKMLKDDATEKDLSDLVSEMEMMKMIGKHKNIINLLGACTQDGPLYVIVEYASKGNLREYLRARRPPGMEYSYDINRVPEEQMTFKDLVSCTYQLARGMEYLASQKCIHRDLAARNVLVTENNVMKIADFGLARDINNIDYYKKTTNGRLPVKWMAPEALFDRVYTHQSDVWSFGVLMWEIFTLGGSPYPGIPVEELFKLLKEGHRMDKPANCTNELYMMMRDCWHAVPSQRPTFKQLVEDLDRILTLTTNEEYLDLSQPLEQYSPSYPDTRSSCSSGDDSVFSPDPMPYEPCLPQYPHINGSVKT
T6 sequence (P21803 22-707 isoform P21803-2 limits assumed): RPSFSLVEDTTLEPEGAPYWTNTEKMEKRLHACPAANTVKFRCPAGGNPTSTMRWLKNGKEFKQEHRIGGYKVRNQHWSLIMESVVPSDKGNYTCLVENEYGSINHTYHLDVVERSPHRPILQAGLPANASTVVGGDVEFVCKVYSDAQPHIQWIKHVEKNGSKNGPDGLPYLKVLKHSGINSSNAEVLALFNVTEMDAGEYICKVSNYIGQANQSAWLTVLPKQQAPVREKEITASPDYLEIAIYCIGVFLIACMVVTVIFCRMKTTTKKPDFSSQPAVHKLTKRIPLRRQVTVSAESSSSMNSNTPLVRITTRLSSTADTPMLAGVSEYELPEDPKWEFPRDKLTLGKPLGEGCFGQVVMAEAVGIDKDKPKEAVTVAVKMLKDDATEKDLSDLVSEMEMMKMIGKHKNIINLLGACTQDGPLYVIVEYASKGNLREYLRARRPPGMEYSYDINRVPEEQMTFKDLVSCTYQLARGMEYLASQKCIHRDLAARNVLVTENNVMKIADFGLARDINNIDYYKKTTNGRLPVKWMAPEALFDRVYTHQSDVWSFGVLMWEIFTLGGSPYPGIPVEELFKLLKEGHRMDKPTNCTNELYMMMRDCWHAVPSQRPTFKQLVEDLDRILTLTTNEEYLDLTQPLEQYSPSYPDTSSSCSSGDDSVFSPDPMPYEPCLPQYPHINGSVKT
T5 sequence (P22607 23-808 isoform P22607-2 limits assumed): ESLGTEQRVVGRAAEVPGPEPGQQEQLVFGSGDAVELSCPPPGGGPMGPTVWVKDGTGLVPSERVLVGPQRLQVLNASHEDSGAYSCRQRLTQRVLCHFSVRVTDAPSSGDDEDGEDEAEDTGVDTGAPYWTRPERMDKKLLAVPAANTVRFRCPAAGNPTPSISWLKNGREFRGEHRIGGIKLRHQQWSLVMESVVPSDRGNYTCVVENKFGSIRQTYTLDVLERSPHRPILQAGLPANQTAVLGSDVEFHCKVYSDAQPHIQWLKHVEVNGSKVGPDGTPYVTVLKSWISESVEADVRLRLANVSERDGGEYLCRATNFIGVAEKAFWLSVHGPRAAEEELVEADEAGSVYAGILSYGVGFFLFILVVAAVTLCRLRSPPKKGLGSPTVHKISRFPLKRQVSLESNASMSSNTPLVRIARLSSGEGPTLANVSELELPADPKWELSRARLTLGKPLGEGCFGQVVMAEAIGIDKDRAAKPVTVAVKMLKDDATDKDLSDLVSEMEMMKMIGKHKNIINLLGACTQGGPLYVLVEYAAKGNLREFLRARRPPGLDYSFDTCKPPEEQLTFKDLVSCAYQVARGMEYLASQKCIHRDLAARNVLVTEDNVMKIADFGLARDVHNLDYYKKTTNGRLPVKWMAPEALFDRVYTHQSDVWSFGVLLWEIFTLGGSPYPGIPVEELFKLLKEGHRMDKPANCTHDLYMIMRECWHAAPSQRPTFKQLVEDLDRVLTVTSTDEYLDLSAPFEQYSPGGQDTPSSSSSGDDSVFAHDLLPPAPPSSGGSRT
T2 sequence (P21802 22-680 isoform P21802-22 limits assumed): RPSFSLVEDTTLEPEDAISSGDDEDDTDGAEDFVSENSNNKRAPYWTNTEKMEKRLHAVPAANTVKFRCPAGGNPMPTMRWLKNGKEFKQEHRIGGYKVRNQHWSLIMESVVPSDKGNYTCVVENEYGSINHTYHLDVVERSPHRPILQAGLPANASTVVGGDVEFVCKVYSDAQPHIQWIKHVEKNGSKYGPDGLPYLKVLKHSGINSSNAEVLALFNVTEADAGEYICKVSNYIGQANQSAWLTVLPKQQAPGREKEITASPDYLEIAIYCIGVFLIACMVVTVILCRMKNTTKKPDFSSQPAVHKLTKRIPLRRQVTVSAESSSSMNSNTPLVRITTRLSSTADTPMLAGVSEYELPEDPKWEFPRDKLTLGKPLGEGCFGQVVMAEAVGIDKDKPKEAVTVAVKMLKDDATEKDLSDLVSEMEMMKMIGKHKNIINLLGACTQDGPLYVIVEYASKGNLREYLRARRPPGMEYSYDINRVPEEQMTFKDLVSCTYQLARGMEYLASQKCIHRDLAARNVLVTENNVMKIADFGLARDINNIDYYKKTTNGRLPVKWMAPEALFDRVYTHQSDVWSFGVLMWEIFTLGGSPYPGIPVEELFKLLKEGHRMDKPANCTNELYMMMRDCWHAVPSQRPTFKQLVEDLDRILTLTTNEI
T3 sequence (P11362 22-733 isoform P11362-3 limits assumed): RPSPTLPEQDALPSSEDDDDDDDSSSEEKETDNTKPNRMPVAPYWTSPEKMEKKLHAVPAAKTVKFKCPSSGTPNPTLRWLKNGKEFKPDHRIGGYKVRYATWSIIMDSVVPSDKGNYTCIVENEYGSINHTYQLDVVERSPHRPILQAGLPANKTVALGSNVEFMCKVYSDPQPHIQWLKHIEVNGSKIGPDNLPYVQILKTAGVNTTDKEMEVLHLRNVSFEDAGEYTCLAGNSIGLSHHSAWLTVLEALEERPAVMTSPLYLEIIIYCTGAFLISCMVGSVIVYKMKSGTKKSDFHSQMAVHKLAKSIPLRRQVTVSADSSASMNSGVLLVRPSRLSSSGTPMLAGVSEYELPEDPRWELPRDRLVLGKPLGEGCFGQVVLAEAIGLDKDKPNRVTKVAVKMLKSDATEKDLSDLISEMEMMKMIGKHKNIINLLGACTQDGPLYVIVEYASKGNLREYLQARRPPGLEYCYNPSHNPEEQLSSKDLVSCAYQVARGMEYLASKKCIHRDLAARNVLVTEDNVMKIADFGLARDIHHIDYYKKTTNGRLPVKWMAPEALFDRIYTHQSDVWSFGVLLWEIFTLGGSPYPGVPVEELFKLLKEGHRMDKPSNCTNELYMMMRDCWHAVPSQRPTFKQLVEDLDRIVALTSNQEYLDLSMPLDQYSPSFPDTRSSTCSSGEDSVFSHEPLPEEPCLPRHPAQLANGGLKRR

B1: M048-D01 (antibody, V domains shown)
VH: EVQLLESGGGLVQPGGSLRLSCAASGFTFSSYAMSWVRQAPGKGLEWVSAISGSGTSTYYADSVKGRFTISRDNSKNTLYLQMNSLRAEDTAVYYCARVRYNWNHGDWFDPWGQGTLVTVSS
VL: QSVLTQPPSASGTPGQRVTISCSGSSSNIGNNYVSWYQQLPGTAPKLLIYENYNRPAGVPDRFSGSKSGTSASLAISGLRSEDEADYYCSSWDDSLNYWVFGGGTKLTVL
In the case of B1, the “Signal-to-background ratio, hFGFR2β-Fc (IIIc)” value [1] is reported as “+++ (+++: >5)”, the “Signal-to-background ratio, hFGFR1β-Fc (IIIb)” value [2] is reported as 0 (0: <2) and the “Signal-to-background ratio, mFGFR2β-Fc (IIIc)” value [3] is reported as “+++ (+++: >5)”. For the same molecule, the “Signal-to-background ratio, mFGFR3-Fc (IIIc)” value [4] was 0 (0: <2), the “Signal-to-background ratio, hFGFR2β-Fc (IIIb)” value [5] was “+++ (+++: >5)” and the “Signal-to-background ratio, hFGFR1β-Fc (IIIc)” value [6] was 0 (0: <2). For the same molecule, the “Signal-to-background ratio, hFGFR2α-Fc (IIIb)” value [7] was “+++ (+++: >5)”, the “Signal-to-background ratio, hFGFR3-Fc (IIIb)” value [8] was 0 (0: <2) and the “Signal-to-background ratio, mFGFR2β-Fc (IIIb)” value [9] was “+++ (+++: >5)”. The “Signal-to-background ratio, hFGFR3-Fc (IIIc)” value [10] was 0 (0: <2) and the “Signal-to-background ratio, hFGFR4-Fc” value [11] was 0 (0: <2).
